In a protein production outcome set (Wang et al. 2014):

assay: label from the status in PepcDB records
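Note: failed if final PepcDB status was selected cloned or expressed and not failed if soluble or beyond.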

Sequence	protein production
MMPKRFNTSGFDTTLRLPSYYGFLHLTQSLTLNSRVFYGARHVTPPAIRIGSNPVQSLLLFRAPTQLTGWNRSSRDLLGRRVSFSDRSDGVDLLSSSPILSTNPNLDDSLTVIALPLPHKPLIPGFYMPIHVKDPKVLAALQESTRQQSPYVGAFLLKDCASTDSSSRSETEDNVVEKFKVKGKPKKKRRKELLNRIHQVGTLAQISSIQGEQVILVGRRRLIIEEMVSEDPLTVRVDHLKDKPYDKDNAVIKASYVEVISTLREVLKTNSLWRDQDIGDFSYQHLADFGAGISGANKHKNQGVLTELDVHKRLELTLELVKKQVEINKIKETDDGSSLSAKIRVRIDTKRDKIPKHVIKVMEEEFTKLEMLEENYSDFDLTYNYLHWLTVLPWGNFSYENFDVLRAKKILDEDHYGLSDVKERILEFIAVGRLRGTSQGKIICLSGPPGVGKTSIGRSIARALDRKFFRFSVGGLSDVAEIKGHCQTYVGAMPGKMVQCLKSVGTANPLILFDEIDKLGRCHTGDPASALLEVMDPEQNAKFLDHFLNVTIDLSKVLFVCTANVIEMIPGPLLDRMEVIDLSGYVTDEKMHIARDYLVKKTCRDCGIKPEHVDLSDAALLSLIENYCREAGVRNLQKQIEKIYRKVALELVRQGAVSFDVTDTKDTKSLAKTDSEVKRMKVADIMKILESATGDSTESKTKQSGLVAKTFEKVMIDESNLADYVGKPVFQEEKIYEQTPVGVVMGLAWTSMGGSTLYIETTFVEEGLGKGGLHITGQLGDVMKESAQIAHTVARRIMFEKEPENLFFANSKLHLHVPEGATPKDGPSAGCTMITSFLSLAMKKLVRKDLAMTGEVTLTGRILPIGGVKEKTIAARRSQIKTIIFPEANRRDFEELAENMKEGLDVHFVDEYEKIFDLAFNYDH	failed
MMQKPITEIIIVGGGTAGWITAGLLAAEHNVDKGVLAHSPKLNITLIESPDVATIGVGEGTWPSMRSTLSKIGIDENDFIRQCDASFKQGSRFINWCKDPQSNVADSYLHPFSLPHGHQELDLCPYWLPHAEQVSFAEAVCSQQVLTQLGLAPKSIVTAQYHFQNNYGYHLNAAKFSQLLTEHCTQKLGVTHIRDHVSQIINNQHGDIEKLITKQNGEISGQLFIDCTGAKSLLLGEHLQVPFLSQKSVLFNDRALAIQVPYSDANSPIASCTHSTAQPNGWIWDIGLPTRKGVGYVYSSSHTNDIDAQKTLFNYLGVDGAAADKLEPRQLAINPGYRAKCWQNNCIAIGMAAGFIEPLEASALALIEWTASTLAQQLPPNRMVMDTISARVNERYQQHWQQIIDFLKLHYVISQRQEDRYWRDHRESNSIPDSLQAMLELWRYQTPSQQDISYKEALFPAASFQYVLYGMSFNTQLPTHVKPSMQQLAQRLFNDNQQRTQALSKNLPTNRELLDKVAQYGFPKL	not failed
MMRAWIQLVIAIGVEIVGTSLLKLSSGFKYPLIGIVGMLLYGLAIFSFSRALSKIPLSVGYAIWAGVGTAATGLIGIWAFGEILTGLKTLGFMAIITGVILLNMPAKTTKSTTATPRSARWRTRFNR	failed
MMRIGLFLLTNLAVLVVAGIILSLFGVGSYHGAGGLNLGNLLVICFVFGMVGSLISLLMSKWMAKKTTGTEIIDPNAPRNQAEAWLLQTVAELSQRAGIQMPEVGIFPSYQSNAFATGWNKNDALVSVSTGLMERMNKDELRAVLAHEIGHVANGDMVTLALIQGVVNAFVMFFARVVGDFIDRNVFGRQDGEAPGMGYFAITIVLDIVFGILASAIVMWFSRHREYRADEAGARLAGKQAMISALLRLQAESEMPDQMPKEMKAFAIAEGKEQGFSLAALFQTHPSIEQRVAALQQLNCP	failed
MMRVGIIGAGNIGHMHAEAVAACENTLLTGVFDLDRERAQSLARASGTVAFASPDELYKASDGVVVASPNRTHADYAREAVAYGRSVLCEKPMAVSLLQAADMRALAAVAPGVCAVGFNYRYLNVIREARNRIGEGMLGRVVHVDVAFKRASALTRQHFTWRDSAAEGHTSGALGDLGVHLIDMLHHLFRSPVDLASCQVALRTKVAAKGGHAVEVDDHAFVSGRIEGGPSFTLTASKASQPEETGFTLAAMGSRGDLSHDSQDGPVLHLRTGIDWEQVKLLGPSRLDDPRGEVTGWGDSFLDQLHDWAGAVTASQRSGTLADFEDGYQAQQVLQELLRIGGRM	failed
MMRVLHISDTHFGTEREPVVHALHALADTLRPDLVVLGGDITQRARRGQFAAARRFIQALQRPVLAVPGNHDIPLFNLAARLFDPYGNYRRALGAVLEPVYEDDRLLAIGVNSTRAARRKNGEVSRTQAQRVAQRLRDARPGQLRVVALHHPVHAMVESDQRNLLIGREFAVPAWVDAGVDLILGGHIHLPYVAPLHGKAGEAGRRAWTVQAGTAVSRRVRGRVPNSVNLIDYAAQADSPACTVQRWDFQTDSGAFVLFGQQVLALNRARG	failed
MMSDSPQKLGRNEWNAYMDKVKAKDREAFAFVFRFYAPKLKQFAYKHVGNEQVAMEMVQETMATVWQKAHLYDGKKSALSTWIYTIIRNLCFDLLRKQKGKELHIHSDDIWPSEYYPPDMVDHYSPEQDMLKEQVVKFLDILPKNQRDVLQAVYLEELPHQQVAELFDIPLGTVKSRLRLAVEKLRHSMHTEQL	failed
MMSEAIIHGIILAFGLIIPLGVQNVFVFNQGASQPNIWRAAPVVLTASICDTLLILIAVQGVSLVLLTFSWLTNSLYIIGFFFLLYMGFVIWRSNPSNDVKQEKSMPLKKQILFAASVSLLNPHAILDTIGVIGTNSIQYIGSEKWAFTLATIIVSWIWFISLALAGKFLKRLDSTGKTILLLNKFSGLIIWGVALYMLKQVIYS	failed
MMTETVRTWRHIPQRYNLTGSKCLQCGNVFFPSRIICPECRRKGKLEELKFSGKGRIHSYSVINTPTDEFKDIAPYVVAIVELEEGARVTSQIVDCDPDSIEIGDEVEMVFRKVREEGEDGVISYGFKFKPKT	failed
MMTLIRITSADDSRLNRLIPLYEESFPESERRKIGQLKRMIENHAPMYFNAIECDGELSGMFVYWDMGDFYYLEHLAVFPEMRNKKIGQQVLDYVAEHLKGVRLLEVEPTEDEMTTRRVNYYRRNGYEVLDKTYVQPSYHALEDACPLWIMGSEDSPRLAEQVERIKEEVYRQQVG	not failed
MMWESESDGGVGVGGGGGREYGDGVLSSNKHGGVKTDGFELRGQSWFVATDIPSDLLVKIGDMNFHLHKYPLLSRSGKMNRLIYESRDPDPTILILDDLPGGPEAFELASKFCYGVPVDLTATNISGLRCAAEYLEMTEDLEEGNLIFKTEAFLSYVVLSSWRDSILVLKSCEKLSPWAENLQIVRRCSESIAWKACSNPKGIRWAYTGKAPSPSTTNFAGSSPRWNESKDSSFYCSPSRNTNSQPVPPDWWFEDVSILRIDHFVRVITAIKVKGMRFELLGAVIMHYAGKWLPGLIKEGGVAIAPAMSSAIGGGLGLGGDEMSISCGSNSSGGSSGPDWKGGLHMVLSAGKTNGHQDSVACLAGLGISPKDQRMIVESLISIIPPQKDSVTCSFLLRLLRAANMLKVAPALITELEKRVGMQFEQATLQDLLIPGYNNKGETMYDVDLVQRLLEHFLVQEQTEGSSPSRMSPSPSQSMYADIPRGNNNNGGGGGGNNQNAKMRVARLVDSYLTEVARDRNLPLTKFQVLAEALPESARTCDDGLYRAIDSYLKAHPTLSEHERKRLCRVMDCQKLSMDACMHAAQNERLPLRVVVQVLFSEQVKISNALANTSLKESTTLGEAMGTYQPMIPNRKTLIEATPQSFQEGWAAAKKDINTLKFELETVKTKYVELQNEMEVMQRQFEKTGKVKNTPSSSAWTSGWKKLSKLTKMSGQESHDISSGGEQAGVDHPPPRKPRRWRNSIS	failed
MMYFISDTHFYHENIINLNPEVRFKGFEIVILTNLLKVLKPEDTLYHLGDFTWHFNDKNEYLRIWKALPGRKILVMGNHDKDKESLKEYFDEIYDFYKIIEHKGKRILLSHYPAKDPITERYPDRQEMVREIYFKENCDLLIHGHVHWNREGIKCACKDYRIECINANVEWNDYKPISEREIDKLISYEKAKN	not failed
MNAEHAVTLRAPAADWERSEREARQAAAYVAAFVGVPAVVAAAAALALFALTALVLLAPLVACVLTWAAWRYGRPERRGARRA	failed
MNAIRYTKRECKDEKKITEFLNKARTGFLGLSTNDQPYVIPLNFVWHNHAIYFHGASEGRKIKMIEANPEVCFTICEDLGTIVSPVPAHTDTAYMSVIIFGTIEPVSAIEEGTEAMQQMLDKYVPGYYHSPLAASHVEKYRSSLGSRTAIYKISCRERTAKVNEPIESLKFYPGRNVSVDKDSR	not failed
MNAKEILVHSLRLLENGDARGWCDLFHPEGVLEFPYAPPGWKTRFEGRETIWAHMRLFPEHLTVRFTDVQFYETADPDLAIGEFHGDGVATVSGGKLAQDYISVLRTRDGQILLYRDFWNPLRHLEALGGVEAAAKIVQGA	not failed
MNAKRWVALGIVFALLIVSALAKFTSSQIASTEESSPTFVESLFADTGELTETVIEEGGDDTIAVLSVDGTIQDTGDSGSLFGDAGYDHSFFMQQLEQVRNDDYIQGVLLYVNSPGGGVMESAQIRDKILQIQKERNIPFYVSMGSMAASGGYYISAPADKIFASKETLTGSLGVIMQGYDYSELMKKLGVSDNTIKSGEYKDIMSGTRPMTEDEKKIMQSMIDDSYNEFVKVVAKGRGMSAEKVRKIADGRIYDGRQAKENGLIDEFGYQEDALEALKKEQGLADATVIQYDVPEDFSSLFSVAAQKISGQNADISQLIKLTGTLKAPRMMYLYGE	failed
MNAPGLAIEGLGVAYGARTVIAGLSLGPLPHGTLTALLGPNGSGKSTLLKAVAGLLPARGGAIALDGQRLDQADLAQRAQQVAYLPQGLPADVHLRVFESVLVAARAHGGEAAGQIGPPAIAALLERLGIGHLALQFLDELSGGQKQLVGLAQALIRRPRVLLLDEPLSALDPNYQFHVMDLLRQETRDHGLITIAALHDINIALRHADQALLIRAGELAAAGEPAAVIDAPMLARVYGIQARVERCSRGHPHVLVDGVAGPVR	failed
MNAPTVFESFSPDSGGVKTQLIIRGQNFGTDTAYLKVTVNNKRAAIVGVADDVIYAIVPARADTGYVRLFVGKDDNVEEYASQTKFIYQFKRNVTTLMGRQGQSGRDDGPYAECKLQRPWFALADKDGALFFIDEGRGQNKNGALRRAQEGWVETLVQNSSGPFQSPTCLAFNPKQDTLYISNMSYGSDIKTSFNILYVTREGGFMDVKGLCKFEKAETQGLAVHPQTGEIFFCNKSGGYIYRFNGPDYEDYEPLFQINRADKIDTRMVFNPEGTALFVVVCNRHCIYKVPYNALTHTFGEPELFAGGWDESGYVNGSGVTARFDNPRQPAFDQDGNMFVPEYGRHTIRKITPTGEVSLYAGLPGQAGFTDGLPEKARFNKPECVTVYLDNSLYVADRDNHLIRRVTVELEHHHHHH	failed
